According to PMC9536298:

What was measured:
[1] = target: survival motor neuron protein (SMN), endogenous human (human (endogenous in human fibroblasts)) (UniProt Q16637); assay: co-IP
[2] = target: zinc finger protein ZPR1, endogenous human (human (endogenous in HeLa and human fibroblasts)) (UniProt O75312); assay: co-IP
Sequence of zinc finger protein ZPR1, endogenous human (human (endogenous in HeLa and human fibroblasts)) (O75312 whole entry): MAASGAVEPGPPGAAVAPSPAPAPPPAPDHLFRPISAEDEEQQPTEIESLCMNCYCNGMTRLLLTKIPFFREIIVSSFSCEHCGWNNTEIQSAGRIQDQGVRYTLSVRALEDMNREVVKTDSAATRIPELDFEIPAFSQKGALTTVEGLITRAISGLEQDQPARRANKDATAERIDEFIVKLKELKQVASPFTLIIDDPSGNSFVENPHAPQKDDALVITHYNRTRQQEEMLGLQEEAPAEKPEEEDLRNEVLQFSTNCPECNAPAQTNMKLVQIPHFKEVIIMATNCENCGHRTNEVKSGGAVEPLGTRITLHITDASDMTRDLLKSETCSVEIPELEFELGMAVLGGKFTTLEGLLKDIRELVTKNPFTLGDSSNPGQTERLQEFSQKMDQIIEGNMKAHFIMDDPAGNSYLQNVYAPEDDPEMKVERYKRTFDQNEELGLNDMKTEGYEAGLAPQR

Sequence of survival motor neuron protein (SMN), endogenous human (human (endogenous in human fibroblasts)) (Q16637 whole entry): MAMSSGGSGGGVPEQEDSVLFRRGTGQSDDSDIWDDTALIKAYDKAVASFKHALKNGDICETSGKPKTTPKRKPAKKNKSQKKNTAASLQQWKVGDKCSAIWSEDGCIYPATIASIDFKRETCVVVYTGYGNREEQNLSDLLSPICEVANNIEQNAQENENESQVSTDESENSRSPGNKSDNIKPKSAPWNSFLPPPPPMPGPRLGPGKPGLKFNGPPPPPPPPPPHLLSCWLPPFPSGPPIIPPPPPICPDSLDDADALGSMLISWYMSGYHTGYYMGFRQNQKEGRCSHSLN

## senataxin (SETX), endogenous human, Q7Z333 1-2677
[1]
  co-IP level with SMN in SMA cells, % of normal cells: 25.8%
[2]
  co-IP level with ZPR1 in SMA cells, % of normal cells: 44.8%
